# Reference: US20240218030A1 (CELLEMEDY, published 2024)
# Molecular target: T1, human transferrin receptor-Fc tag standard (human, UniProt P02786 89-760, limits assumed)
# T1 construct: Reagent coated on the ELISA plate at 2 ug/ml; also called hTfR; hTER; not shown: Fc tag
# Assay: ELISA on plate-coated human TfR-Fc with anti-His detection; Kd calculated from an expected saturation point, since the curve was not saturated at 10000 nM
# Protocol: Then, it was washed 3 times with 200 μl of PBST (PBS+Tween0.05%). An antibody (mouse anti-His tag antibody, Hisprobe) that specifically binds to the hexa-His tag was diluted 1/1000 in PBST, and the diluted solution was treated by 100 μl at room temperature for 1 hour.
# Then, it was washed 3 times with 200 μl of PBST (PBS+Tween0.05%). TMB solution expressing coloration by reacting with HRP was treated by 100 μl at room temperature for 15 minutes. After 50 μl of 1M H₂SO₄ solution was treated, optical density was measured with TECAN at a wavelength of 450 nm. This was calculated using the Langmuir equation (Table 4, FIGS. 4 to 6).
# FIG. 7 illustrates results of evaluation/comparison of the binding force of huHF_mutant1-dual and huHF_mutant2-dual to hTfR.
# T1 sequence (P02786 89-760 limits assumed): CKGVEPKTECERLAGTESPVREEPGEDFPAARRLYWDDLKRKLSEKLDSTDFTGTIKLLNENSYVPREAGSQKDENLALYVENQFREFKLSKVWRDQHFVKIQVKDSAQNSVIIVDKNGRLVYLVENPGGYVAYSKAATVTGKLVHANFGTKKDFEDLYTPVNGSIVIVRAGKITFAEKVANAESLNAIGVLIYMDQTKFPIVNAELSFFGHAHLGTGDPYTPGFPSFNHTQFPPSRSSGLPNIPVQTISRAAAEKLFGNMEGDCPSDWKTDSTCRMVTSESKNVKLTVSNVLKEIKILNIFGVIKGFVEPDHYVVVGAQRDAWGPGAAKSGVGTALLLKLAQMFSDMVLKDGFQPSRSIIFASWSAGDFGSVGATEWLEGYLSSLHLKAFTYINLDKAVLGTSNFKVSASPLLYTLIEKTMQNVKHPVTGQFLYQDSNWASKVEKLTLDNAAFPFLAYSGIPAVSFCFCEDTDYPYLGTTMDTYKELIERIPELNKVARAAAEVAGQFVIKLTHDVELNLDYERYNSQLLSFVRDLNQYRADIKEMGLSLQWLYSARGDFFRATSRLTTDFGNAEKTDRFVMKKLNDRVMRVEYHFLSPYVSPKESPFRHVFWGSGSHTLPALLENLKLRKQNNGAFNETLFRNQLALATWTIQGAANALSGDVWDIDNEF
binder,measurement,value
"huHF_Mutant2-dual (designed binder, Self-assembled ferritin nanoparticle of 24 monomers) MTTASTSQVRQNYHAASEAAINAQINLELYASYVYLSMSYYFDRDDVALKNFAKYFLHQSHEEREHAEKLMKLQNQRGGRIALADIQKPDCDDGGSYGSLYAFDIWESGLNAMECALHLEKNVNQSLLALHALATAKNDPHLCDFIETHYLNEQVKAIKELGDHVTNLRKMGAPESGLAEYLFDKHTLGDSDNESMPSFITLASLSTWEGYFDF",Kd,~4.4 µM
